Changes are numbered by the printed parent chain.
B1: WCSL IgG1 (sheet row 19) (antibody, V domains shown)
VH: EVQLVESGGGVVQPGRSLRLSCAASGFTFSNYAMSWVRQAPGKGLEWVSGISGSGGSTYYADSVKGRFTISRDNSKNTLYLQMNSLRAEDTAVYYCARDRGYSYAAFQHWGQGTLVTVSS
VL: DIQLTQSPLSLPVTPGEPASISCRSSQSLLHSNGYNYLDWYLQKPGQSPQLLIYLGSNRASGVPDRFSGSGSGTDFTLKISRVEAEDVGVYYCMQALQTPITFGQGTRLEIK
B2: WCSL IgG1 (sheet row 6) (antibody, V domains shown)
VH: QVQLVESGGGLIQPGGSLRLSCAASGFLVSSKYMSWVRQAPGKGLEWVSSIYSGGDTYYADSVKGRFTISRDNSKNTLSLQMHSLKADDTAVYYCARGATGYSDSWYENWGQGTLVTVSS
VL: DIVMTQSPLSLPVTPGEPASISCRPSQSLLHSNGNNYLDWYLQKPGQSPQLLIYLGSNRASGVPDRFSGSGSGTDFTLRISSVEAEDVGVYYCMQALQNPLTFGQGTRLEIK
B3: WCSL IgG1 (sheet row 14) (antibody, V domains shown)
VH: VESGGGLVQPGGSLRLSCVASGAASGFTFSTESMNWVRQAPGKGLEWVSYIYPSGGGAYYADSVQGRFTVSRDNAKNSVYLQMNSLRVEDTAVYYCVRHQYGDYPSWGQGTPVTVSS
VL: B2 VL with P12S, P25S, N35F, L38F, R79K, S82R, A96G, N99I, L101Y, R108K
B4: WCSL IgG1 (sheet row 16) (antibody, V domains shown)
VH: QITLKESGPTLVKPTQTLTLTCTFSGFSLSTSGVGVGWIRQPPGKALEWLALIYWDDDKRYSPSLKSRLTITRDTSKNLVVLTMINMDPVDTATYYCAHSHSTTWGAFDYWGQGTLVTVSS
VL: DIVMTQSPDSLAVSLGERATINCKSSRSVLYTYNNKDDVAWYQQKPGQPPKLLIYWASTRESGVPDRFSGSGSGTDFTLTISSLQAEDVAVYYCQQYYSAPLTFGGGPRWRSN
B5: WCSL IgG1 (sheet row 18) (antibody, V domains shown)
VH: EVQLVESGGGVVQPGRSLRLSCAASGFTFSSYGMHWVRQAPGKGLEWVSYIYPSGGGAYYADSVQGRFTVSRDNAKNSVYLQMNSLRVEDTAVYYCTRDFWSAPIPMWGQGTLVTVSS
VL: DIVMTQSPVSLPVTPGEPASISCRSSQSLLHSNGHNYLNWYLQKPGQSPHLLIYLGSNRASGVPDRFSGSGSGTDFTLNISRVEAEDVGVYYCMQALQTPWTFGQGTKVEIK
B6: WCSL IgG1 (sheet row 13) (antibody, V domains shown)
VH: EVQLVESGGGLVKPGGSLRLSCAASGFTFSSYSMNWVRQAPGKGLEWVSSISSSSSYIYYADSVKGRFTISRDNAKNSLYLQMNSLRAEDTAVYYCARATTVVTPGYFQHWGQGTLVTVSS
VL: EIVLTQSPATLSLSPGQRATLSCRASQSVSSSLAWYQQKPGQAPRLLIYDASDRATDIPARFSGSGSGTDFTLTISSLEPEDFAVYYCQQRTNWPPLTFGGGTKVEIK
B7: WCSL IgG1 (sheet row 10) (antibody, V domains shown)
VH: EVQLVESGGGLVKPGGSLRLSCAASGFTFSSYSMNWVRQAPGKGLEWVSSISSSSGYIYYSDSLKGRFTISRDNAKNSLYLQMNSLTAEDTAVYYCAREGHIASRGWGWFDSWGQGTLVTVSS
VL: DIVMTQSPVSLAVTPGESASISCRSSQSLLHRNGYNYVDWYLQKPGQSPQLLIYLGSTRASGVPDRFSGSGSGTDFSLQITRVEAEDVGVYYCMQPLEIPLTFGGGTKLEIK
B8: WCSL IgG1 (sheet row 4) (antibody, V domains shown)
VH: EVQLLESGGGLVQPGGSLRLSCAASGFTFRNYAMSWVRQAPGKGLEWVSAISGSGSGTYYADSVKGRFTISRDNSKNTLYLQMNSLRAEDTAVYYCAKEGARIHWGQGTLVTVSS
VL: not shown
B9: WCSL IgG1 (sheet row 9) (antibody, V domains shown)
VH: B8 VH with L5V
VL: B5 VL with V9L, P12S, H35N, L38F, N39D, S48A, H50Q, N79K
B10: WCSL IgG1 (sheet row 8) (antibody, V domains shown)
VH: QLQLQESGPGLVKPSETLSLTCTVSGGSISSSSYYWGWIRQPPGKGLEWIGSIYYSGSTYYNPSLKSRVTISVDTSKNQFSLKLSSVTAADTAVYYCASSPRNWGSPRFAFDIWGQGTMVTVSS
VL: QSVLTQPPSVSGAPGQRVTISCTGTTSNIGAGYDVHWYQQLPGTAPKLLIFGNTNRPSGVPERFSASRSGTSASLAITGLQTTDEADYYCQSYDNSLSGSRVFGGGTKLTVL
B11: WCSL IgG1 (sheet row 12) (antibody, V domains shown)
VH: EVQLLESGGGLVQPGGSLRLSCAASGFTFSSYWMHWVRQAPGKGLEWVSAISGSGGSTYYADSVKGRFTISRDNSKNTLYLQMNSLRAEDTAVYYCARDTPLYYDFWSGDAFDIWGQGTMVTVSS
VL: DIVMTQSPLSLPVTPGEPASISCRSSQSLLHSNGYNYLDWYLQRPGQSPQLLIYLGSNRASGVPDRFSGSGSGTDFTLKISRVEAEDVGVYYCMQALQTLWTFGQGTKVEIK

Target: recombinant human ACE2 (Homo sapiens, UniProt Q9BYF1)
Sequence (Q9BYF1 18-805): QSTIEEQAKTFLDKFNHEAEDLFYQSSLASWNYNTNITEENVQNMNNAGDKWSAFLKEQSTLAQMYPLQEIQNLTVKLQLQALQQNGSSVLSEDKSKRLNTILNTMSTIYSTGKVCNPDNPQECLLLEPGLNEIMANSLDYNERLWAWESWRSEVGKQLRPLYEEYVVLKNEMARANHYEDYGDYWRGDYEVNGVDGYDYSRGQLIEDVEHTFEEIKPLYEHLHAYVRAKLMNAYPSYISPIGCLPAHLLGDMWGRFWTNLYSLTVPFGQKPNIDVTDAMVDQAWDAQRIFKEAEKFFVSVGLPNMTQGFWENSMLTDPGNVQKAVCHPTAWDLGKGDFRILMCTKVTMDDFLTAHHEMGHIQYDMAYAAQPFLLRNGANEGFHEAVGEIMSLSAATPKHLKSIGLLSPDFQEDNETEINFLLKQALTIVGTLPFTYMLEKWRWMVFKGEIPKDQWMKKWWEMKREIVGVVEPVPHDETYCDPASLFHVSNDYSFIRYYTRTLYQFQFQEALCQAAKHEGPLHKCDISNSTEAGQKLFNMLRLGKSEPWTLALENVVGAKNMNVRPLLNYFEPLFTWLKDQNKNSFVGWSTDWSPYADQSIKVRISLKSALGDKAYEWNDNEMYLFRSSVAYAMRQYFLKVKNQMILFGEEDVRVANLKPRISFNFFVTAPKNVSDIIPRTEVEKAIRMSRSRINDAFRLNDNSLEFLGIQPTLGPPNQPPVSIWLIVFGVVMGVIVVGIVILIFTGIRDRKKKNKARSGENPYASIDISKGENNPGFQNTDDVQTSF

Binder	binding result
B1	binds
B2	binds
B3	binds
B4	binds
B5	binds
B6	binds
B7	binds
B8	binds
B9	binds
B10	binds
B11	binds

— paper PMC10415184, “A placental model of SARS-CoV-2 infection reveals ACE2-dependent susceptibility and differentiation impairment in syncytiotrophoblasts” (Nature Cell Biology, 2023)
